doi:10.1101/382838

Target: C. elegans PGL-3 N-terminal dimerization domain (NtDD), wild type (C. elegans)
Test: SEC-MALS

stoichiometry N: 2
Substance: C. elegans PGL-3 N-terminal dimerization domain (NtDD), wild type (domain or fragment)
